Reference: US5585345

These substances were tested against human glycoprotein hormone alpha subunit (human) (UniProt P01215) (assay: co-expression with alpha subunit in CHO cells, 35S-cysteine pulse-chase, immunoprecipitation, SDS-PAGE).

Row | Dimer Recovery (%) | Substance
1 | 90 | CG(1-114)
2 | 80 | LH(1-114)
3 | 32 | LHarg^8
4 | 91 | LHarg^8 (1-114)
5 | 95 | LHarg^8 arg^10 (1-114)

Further lines, the substance ahead of its results:

Row | Substance | Dimer Recovery (%)
6 | LHasn^58 (1-114) | > 95
7 | LHthr^15 | 30
8 | LHthr^42 (1-114) | 84
9 | human chorionic gonadotropin beta subunit | > 95
10 | human luteinizing hormone beta subunit | 42

What follows are substances tested against human glycoprotein hormone alpha subunit (human) (UniProt P01215) (assay: co-expression with alpha subunit in CHO cells, pulse-chase, immunoprecipitation; recovery of diglycosylated form, estimated).

Row | Dimer Recovery (%) | Substance
11 | > 95 | LHthr^15 (1-114)

What follows are substances tested against human glycoprotein hormone alpha subunit (human) (UniProt P01215) (assay: co-expression with alpha subunit in CHO cells, pulse-chase, immunoprecipitation; monoglycosylated form recovered in the medium).

Row | Dimer Recovery (%) | Substance
12 | 40 | LHthr^15 (1-114)
